Test results: patent publication US20130005646A1 (Novo Nordisk, published 2013)
Starred links: 1 amine or outer side, 2 acyl side, 3 side chain; linkers in the order of their positions; H or OH if unused. Positions of bridges follow the written chain, without caps; N, C: chain ends. *: point of attachment. C20 diacid = O=C(O)CCCCCCCCCCCCCCCCCCC(=O)*; γGlu = O=C(O)[C@H](CCC(=O)[*:2])N[*:1]

T1: human calcitonin (a) receptor (human, UniProt P30988 25-474)
T1 sequence (looked up): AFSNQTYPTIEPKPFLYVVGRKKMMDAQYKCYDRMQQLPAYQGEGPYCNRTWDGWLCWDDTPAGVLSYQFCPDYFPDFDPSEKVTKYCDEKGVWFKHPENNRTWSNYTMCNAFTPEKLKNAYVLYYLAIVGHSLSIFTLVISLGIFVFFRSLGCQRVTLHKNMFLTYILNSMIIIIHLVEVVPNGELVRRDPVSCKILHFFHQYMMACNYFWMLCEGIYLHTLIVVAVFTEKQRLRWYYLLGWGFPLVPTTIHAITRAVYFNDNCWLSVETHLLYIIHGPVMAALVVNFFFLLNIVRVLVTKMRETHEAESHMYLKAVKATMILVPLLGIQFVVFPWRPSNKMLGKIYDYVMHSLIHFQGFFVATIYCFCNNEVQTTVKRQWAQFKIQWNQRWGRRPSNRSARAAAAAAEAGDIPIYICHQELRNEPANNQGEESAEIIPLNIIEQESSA

T2: human amylin 3(a) receptor (human calcitonin receptor + RAMP-3) (human, UniProt P30988 25-474; O60896 24-148)
T2 sequence (looked up) 1: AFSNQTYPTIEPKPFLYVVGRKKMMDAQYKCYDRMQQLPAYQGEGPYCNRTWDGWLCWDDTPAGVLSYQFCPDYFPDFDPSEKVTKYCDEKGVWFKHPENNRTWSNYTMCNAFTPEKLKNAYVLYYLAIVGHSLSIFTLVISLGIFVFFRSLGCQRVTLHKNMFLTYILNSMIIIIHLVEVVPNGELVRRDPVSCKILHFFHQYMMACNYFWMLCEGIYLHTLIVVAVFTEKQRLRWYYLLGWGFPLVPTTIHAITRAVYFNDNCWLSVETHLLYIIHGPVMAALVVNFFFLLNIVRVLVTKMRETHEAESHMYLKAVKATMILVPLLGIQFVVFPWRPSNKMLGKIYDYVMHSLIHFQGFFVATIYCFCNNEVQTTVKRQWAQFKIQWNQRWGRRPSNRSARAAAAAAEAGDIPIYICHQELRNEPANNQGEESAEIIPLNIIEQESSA
T2 sequence (looked up) 2: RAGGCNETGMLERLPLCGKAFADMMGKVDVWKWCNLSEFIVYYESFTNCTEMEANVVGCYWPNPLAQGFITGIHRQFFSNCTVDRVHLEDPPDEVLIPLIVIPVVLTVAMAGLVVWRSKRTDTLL


What was measured:
[1] = target: T1, human calcitonin (a) receptor; test: cell-based or functional assay
[2] = target: T2, human amylin 3(a) receptor (human …); test: cell-based or functional assay

CTa receptor human EC50 [1] [pM]	Amylin receptor human EC50 [2] [pM]	Binder
72.5	84.5	{C20 diacid-γGlu}-HCNTATCATQRLAEFLVHSSNNFGPILPPTNVGSNTP-NH2 (disulfide 2-7; SMILES CC[C@H](C)[C@H](NC(=O)[C@@H]1CCCN1C(=O)CNC(=O)[C@H](Cc1ccccc1)NC(=O)[C@H](CC(N)=O)NC(=O)[C@H](CC(N)=O)NC(=O)[C@H](CO)NC(=O)[C@H](CO)NC(=O)[C@H](Cc1c[nH]cn1)NC(=O)[C@@H](NC(=O)[C@H](CC(C)C)NC(=O)[C@H](Cc1ccccc1)NC(=O)[C@H](CCC(=O)O)NC(=O)[C@H](C)NC(=O)[C@H](CC(C)C)NC(=O)[C@H](CCCNC(=N)N)NC(=O)[C@H](CCC(N)=O)NC(=O)[C@@H](NC(=O)[C@H](C)NC(=O)[C@@H]1CSSC[C@H](NC(=O)[C@H](Cc2c[nH]cn2)NC(=O)CC[C@H](NC(=O)CCCCCCCCCCCCCCCCCCC(=O)O)C(=O)O)C(=O)N[C@@H](CC(N)=O)C(=O)N[C@@H]([C@@H](C)O)C(=O)N[C@@H](C)C(=O)N[C@@H]([C@@H](C)O)C(=O)N1)[C@@H](C)O)C(C)C)C(=O)N[C@@H](CC(C)C)C(=O)N1CCC[C@H]1C(=O)N1CCC[C@H]1C(=O)N[C@H](C(=O)N[C@@H](CC(N)=O)C(=O)N[C@H](C(=O)NCC(=O)N[C@@H](CO)C(=O)N[C@@H](CC(N)=O)C(=O)N[C@H](C(=O)N1CCC[C@H]1C(N)=O)[C@@H](C)O)C(C)C)[C@@H](C)O) [N-alpha-[(S)-4-Carboxy-4-(19-carboxynonadecanoylamino)butyryl]-[His1,Glu14,Pro37]-pramlintide]
70.5	62.5	{C20 diacid-γGlu}-SCNTATCATQRLAEFLHHSSNNFGPILPPTNVGSNTP-NH2 (disulfide 2-7; SMILES CC[C@H](C)[C@H](NC(=O)[C@@H]1CCCN1C(=O)CNC(=O)[C@H](Cc1ccccc1)NC(=O)[C@H](CC(N)=O)NC(=O)[C@H](CC(N)=O)NC(=O)[C@H](CO)NC(=O)[C@H](CO)NC(=O)[C@H](Cc1c[nH]cn1)NC(=O)[C@H](Cc1c[nH]cn1)NC(=O)[C@H](CC(C)C)NC(=O)[C@H](Cc1ccccc1)NC(=O)[C@H](CCC(=O)O)NC(=O)[C@H](C)NC(=O)[C@H](CC(C)C)NC(=O)[C@H](CCCNC(=N)N)NC(=O)[C@H](CCC(N)=O)NC(=O)[C@@H](NC(=O)[C@H](C)NC(=O)[C@@H]1CSSC[C@H](NC(=O)[C@H](CO)NC(=O)CC[C@H](NC(=O)CCCCCCCCCCCCCCCCCCC(=O)O)C(=O)O)C(=O)N[C@@H](CC(N)=O)C(=O)N[C@@H]([C@@H](C)O)C(=O)N[C@@H](C)C(=O)N[C@@H]([C@@H](C)O)C(=O)N1)[C@@H](C)O)C(=O)N[C@@H](CC(C)C)C(=O)N1CCC[C@H]1C(=O)N1CCC[C@H]1C(=O)N[C@H](C(=O)N[C@@H](CC(N)=O)C(=O)N[C@H](C(=O)NCC(=O)N[C@@H](CO)C(=O)N[C@@H](CC(N)=O)C(=O)N[C@H](C(=O)N1CCC[C@H]1C(N)=O)[C@@H](C)O)C(C)C)[C@@H](C)O) [N-alpha-[(S)-4-Carboxy-4-(19-carboxynonadecanoylamino)butyryl]-[Ser1,Glu14,His17,Pro37]-pramlintide]
160	208	{C20 diacid-γGlu}-GCNTATCATQRLAEFLHHSSNNFGPILPPTNVGSHTY-NH2 (disulfide 2-7; SMILES CC[C@H](C)[C@H](NC(=O)[C@@H]1CCCN1C(=O)CNC(=O)[C@H](Cc1ccccc1)NC(=O)[C@H](CC(N)=O)NC(=O)[C@H](CC(N)=O)NC(=O)[C@H](CO)NC(=O)[C@H](CO)NC(=O)[C@H](Cc1c[nH]cn1)NC(=O)[C@H](Cc1c[nH]cn1)NC(=O)[C@H](CC(C)C)NC(=O)[C@H](Cc1ccccc1)NC(=O)[C@H](CCC(=O)O)NC(=O)[C@H](C)NC(=O)[C@H](CC(C)C)NC(=O)[C@H](CCCNC(=N)N)NC(=O)[C@H](CCC(N)=O)NC(=O)[C@@H](NC(=O)[C@H](C)NC(=O)[C@@H]1CSSC[C@H](NC(=O)CNC(=O)CC[C@H](NC(=O)CCCCCCCCCCCCCCCCCCC(=O)O)C(=O)O)C(=O)N[C@@H](CC(N)=O)C(=O)N[C@@H]([C@@H](C)O)C(=O)N[C@@H](C)C(=O)N[C@@H]([C@@H](C)O)C(=O)N1)[C@@H](C)O)C(=O)N[C@@H](CC(C)C)C(=O)N1CCC[C@H]1C(=O)N1CCC[C@H]1C(=O)N[C@H](C(=O)N[C@@H](CC(N)=O)C(=O)N[C@H](C(=O)NCC(=O)N[C@@H](CO)C(=O)N[C@@H](Cc1c[nH]cn1)C(=O)N[C@H](C(=O)N[C@@H](Cc1ccc(O)cc1)C(N)=O)[C@@H](C)O)C(C)C)[C@@H](C)O) [N-alpha-[(S)-4-Carboxy-4-(19-carboxynonadecanoylamino)butyryl]-[Gly1,Glu14,His17,His35]-pramlintide]
73.5	88	{C20 diacid-γGlu}-CNTATCATQRLAEFLVHSSNNFGPILPPTNVGSNTP-NH2 (disulfide 1-6; SMILES CC[C@H](C)[C@H](NC(=O)[C@@H]1CCCN1C(=O)CNC(=O)[C@H](Cc1ccccc1)NC(=O)[C@H](CC(N)=O)NC(=O)[C@H](CC(N)=O)NC(=O)[C@H](CO)NC(=O)[C@H](CO)NC(=O)[C@H](Cc1c[nH]cn1)NC(=O)[C@@H](NC(=O)[C@H](CC(C)C)NC(=O)[C@H](Cc1ccccc1)NC(=O)[C@H](CCC(=O)O)NC(=O)[C@H](C)NC(=O)[C@H](CC(C)C)NC(=O)[C@H](CCCNC(=N)N)NC(=O)[C@H](CCC(N)=O)NC(=O)[C@@H](NC(=O)[C@H](C)NC(=O)[C@@H]1CSSC[C@H](NC(=O)CC[C@H](NC(=O)CCCCCCCCCCCCCCCCCCC(=O)O)C(=O)O)C(=O)N[C@@H](CC(N)=O)C(=O)N[C@@H]([C@@H](C)O)C(=O)N[C@@H](C)C(=O)N[C@@H]([C@@H](C)O)C(=O)N1)[C@@H](C)O)C(C)C)C(=O)N[C@@H](CC(C)C)C(=O)N1CCC[C@H]1C(=O)N1CCC[C@H]1C(=O)N[C@H](C(=O)N[C@@H](CC(N)=O)C(=O)N[C@H](C(=O)NCC(=O)N[C@@H](CO)C(=O)N[C@@H](CC(N)=O)C(=O)N[C@H](C(=O)N1CCC[C@H]1C(N)=O)[C@@H](C)O)C(C)C)[C@@H](C)O) [N-alpha-[(S)-4-Carboxy-4-(19-carboxynonadecanoylamino)butyryl]-[des1,Glu14,Pro37]-pramlintide]
171	225	{C20 diacid-γGlu}-SCNTATCATQRLAEFLHHSSNNFGPILPPTNVGSHTY-NH2 (disulfide 2-7; SMILES CC[C@H](C)[C@H](NC(=O)[C@@H]1CCCN1C(=O)CNC(=O)[C@H](Cc1ccccc1)NC(=O)[C@H](CC(N)=O)NC(=O)[C@H](CC(N)=O)NC(=O)[C@H](CO)NC(=O)[C@H](CO)NC(=O)[C@H](Cc1c[nH]cn1)NC(=O)[C@H](Cc1c[nH]cn1)NC(=O)[C@H](CC(C)C)NC(=O)[C@H](Cc1ccccc1)NC(=O)[C@H](CCC(=O)O)NC(=O)[C@H](C)NC(=O)[C@H](CC(C)C)NC(=O)[C@H](CCCNC(=N)N)NC(=O)[C@H](CCC(N)=O)NC(=O)[C@@H](NC(=O)[C@H](C)NC(=O)[C@@H]1CSSC[C@H](NC(=O)[C@H](CO)NC(=O)CC[C@H](NC(=O)CCCCCCCCCCCCCCCCCCC(=O)O)C(=O)O)C(=O)N[C@@H](CC(N)=O)C(=O)N[C@@H]([C@@H](C)O)C(=O)N[C@@H](C)C(=O)N[C@@H]([C@@H](C)O)C(=O)N1)[C@@H](C)O)C(=O)N[C@@H](CC(C)C)C(=O)N1CCC[C@H]1C(=O)N1CCC[C@H]1C(=O)N[C@H](C(=O)N[C@@H](CC(N)=O)C(=O)N[C@H](C(=O)NCC(=O)N[C@@H](CO)C(=O)N[C@@H](Cc1c[nH]cn1)C(=O)N[C@H](C(=O)N[C@@H](Cc1ccc(O)cc1)C(N)=O)[C@@H](C)O)C(C)C)[C@@H](C)O) [N-alpha-[(S)-4-Carboxy-4-(19-carboxynonadecanoylamino)butyryl]-[Ser1,Glu14,His17,His35]-pramlintide]
